# According to US20250262316A1 (BIO THERA SOLUTIONS, published 2025):
# Positions count from the first letter of the chain named.
# T1: Lag3 (NCBI Reference Sequence: NP_002277.4) on Lag3-CHO cells (UniProt P18627 23-525, limits assumed)
# T1 construct: whole, on cells
# T1 sequence (looked up): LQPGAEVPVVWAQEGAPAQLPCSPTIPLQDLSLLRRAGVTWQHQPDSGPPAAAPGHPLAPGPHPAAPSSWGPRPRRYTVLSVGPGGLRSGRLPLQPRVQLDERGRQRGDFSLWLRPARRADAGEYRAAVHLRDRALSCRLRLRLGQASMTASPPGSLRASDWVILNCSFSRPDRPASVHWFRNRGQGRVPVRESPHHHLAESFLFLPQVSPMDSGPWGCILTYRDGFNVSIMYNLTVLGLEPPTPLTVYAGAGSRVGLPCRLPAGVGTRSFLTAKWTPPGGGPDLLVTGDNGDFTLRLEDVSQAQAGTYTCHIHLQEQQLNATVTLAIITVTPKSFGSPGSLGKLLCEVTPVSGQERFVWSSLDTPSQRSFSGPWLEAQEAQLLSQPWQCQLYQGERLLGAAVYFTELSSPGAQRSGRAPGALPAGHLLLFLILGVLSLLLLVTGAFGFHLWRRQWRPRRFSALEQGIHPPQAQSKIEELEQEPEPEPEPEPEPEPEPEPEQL
# T2: antigen hB7-H3-His (human, UniProt Q5ZPR3 29-461)
# T2 construct: residues 1-28 are left out on that ground
# T2 sequence: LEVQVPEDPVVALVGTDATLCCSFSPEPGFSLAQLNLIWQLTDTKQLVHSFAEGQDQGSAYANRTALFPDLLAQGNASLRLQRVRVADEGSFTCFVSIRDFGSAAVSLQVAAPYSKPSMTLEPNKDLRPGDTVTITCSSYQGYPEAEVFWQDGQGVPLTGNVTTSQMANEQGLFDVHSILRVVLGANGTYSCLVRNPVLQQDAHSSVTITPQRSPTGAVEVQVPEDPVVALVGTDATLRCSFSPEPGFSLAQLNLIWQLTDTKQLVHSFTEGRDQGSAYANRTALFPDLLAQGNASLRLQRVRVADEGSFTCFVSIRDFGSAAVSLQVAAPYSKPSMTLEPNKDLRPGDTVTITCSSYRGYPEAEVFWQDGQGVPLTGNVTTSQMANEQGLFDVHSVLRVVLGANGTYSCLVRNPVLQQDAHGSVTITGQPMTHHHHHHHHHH
# T3: B7-H3 on MDA-MB-468 cells (human, UniProt Q5ZPR3)
# T3 construct: endogenous, on the cell surface
# T3 sequence (cell surface antigen, looked up): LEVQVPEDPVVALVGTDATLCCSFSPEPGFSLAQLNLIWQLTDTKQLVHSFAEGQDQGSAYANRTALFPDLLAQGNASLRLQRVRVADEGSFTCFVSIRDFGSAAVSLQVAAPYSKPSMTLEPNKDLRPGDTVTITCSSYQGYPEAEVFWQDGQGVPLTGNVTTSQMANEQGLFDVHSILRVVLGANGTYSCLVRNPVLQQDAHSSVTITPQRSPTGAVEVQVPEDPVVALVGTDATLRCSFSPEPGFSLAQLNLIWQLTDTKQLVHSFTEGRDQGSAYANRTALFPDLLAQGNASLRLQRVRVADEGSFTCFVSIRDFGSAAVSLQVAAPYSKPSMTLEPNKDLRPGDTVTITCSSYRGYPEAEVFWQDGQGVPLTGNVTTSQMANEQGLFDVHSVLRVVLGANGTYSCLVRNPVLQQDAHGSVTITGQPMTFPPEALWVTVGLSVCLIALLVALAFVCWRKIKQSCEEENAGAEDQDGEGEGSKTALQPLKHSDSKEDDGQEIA
# B1: Antibody M1 (antibody, human IgG1, kappa, V domains shown)
# VH: QVQLQQSGPELVKPGASVRISCKASGYTFTDYDINWVQQRPGQGLEWIGWIFPGDDTTKYNEKFKGRATLTADKSSNTAYMQLNGLTSENSAVYFCARSPSFDYWGQGTLVTVSS
# VL: QIVLTQSPAIMSASPGERVTMTCSASSTIGFMYWYQQKPGTSPKRWIYDTSKLASGVPARFSVSGSGTSYSLTISSMEAEDAATYYCHQRSSYPTFGGGTKLEIKR
# notes: Chimeric antibody: murine variable regions on human IgG1 and light chain constant regions; expressed in HEK293F cells; also called chimeric antibody M1
# B2: Antibody M2 (antibody, human IgG1, kappa, V domains shown)
# VH: B1 VH
# VL: DIKMTQSPSSMYASLGERVTITCKASQDINRFLSWFQQKPGKSPKTLIYRANRLRDGVPSRFSGNGSGQDYSLTISSLEYEDMGIYYCLQYDEFPPFTFGSGTKLEIKR
# notes: Chimeric antibody: murine variable regions on human IgG1 and light chain constant regions; expressed in HEK293F cells; also called chimeric antibody M2
# B3: Antibody V5 (antibody, human IgG1, kappa, V domains shown)
# VH: QVQLVQSGAEVKKPGASVKVSCKASGYTFTDYDINWVRQAPGQRLEWIGWIFPGDDTTKYNEKFKGRATLTADKSASTAYMELSSLRSEDTAVYYCARSPSFDYWGQGTLVTVSS
# VL: QIVLTQSPSSLSASVGDRVTITCSASSTIGFMYWYQQKPGKAPKRWIYDTSKLASGVPSRFSVSGSGTDYTLTISSLQPEDFATYYCHQRSSYPTFGQGTKVEIKR
# notes: Humanized from chimeric antibody M1; also called humanized antibody V5
# B4: Antibody V2 (antibody, human IgG1, kappa, V domains shown)
# VH: EVQLVQSGAEVKKSGESLKISCKASGYTFTDYDINWVRQMPGKGLEWIGWIFPGDDTTKYNEKFKGQVTLSADKSTNTAYMQWSSLKASDTAMYYCARSPSFDYWGQGTLVTVSS
# VL: QIVLTQSPGTLSLSPGERATLSCSASSTIGFMYWYQQKPGQAPRRWIYDTSKLASGVPDRFSVSGSGTDYTLTISRLEPEDFAVYYCHQRSSYPTFGQGTKVEIKR
# notes: Humanized from chimeric antibody M1; also called humanized antibody V2
# B5: Antibody V1 (antibody, human IgG1, kappa, V domains shown)
# VH: B4 VH with I48M, L70I, M81L
# VL: B4 VL
# notes: Humanized from chimeric antibody M1; also called humanized antibody V1
# How the values were obtained:
# [1] = target: T4, VISTA (NCBI Reference Sequence: NP_071436.1) on VISTA-CHO cells (UniProt Q9H7M9 33-311, limits assumed); assay: flow cytometry on VISTA-CHO cells, PE anti-human IgG Fc secondary
# T4 construct: whole, on cells
# [2] = target: T5, hB7-H3-Fc; assay: ELISA on coated hB7-H3-Fc (2 ug/mL), HRP anti-human kappa secondary, A450, antibody from 300 nM in 3-fold dilutions; axis 'Concentration' has no unit, nM from p-1066
# T5 construct: also called antigen hB7-H3-Fc
# [3] = target: T6, Tim3 (NCBI Reference Sequence: NP_116171.3) on Tim3-CHO cells (UniProt Q8TDQ0 22-301, limits assumed); assay: flow cytometry on Tim3-CHO cells, PE anti-human IgG Fc secondary
# T6 construct: whole, on cells
# [4] = target: T1, Lag3 (NCBI Reference Sequence: …); assay: flow cytometry on Lag3-CHO cells, PE anti-human IgG Fc secondary
# [5] = target: T2, antigen hB7-H3-His; assay: SPR, BiaCore T200, antibody captured on Protein A chip, hB7-H3-His as analyte, 1:1 model
# [6] = target: T3, B7-H3 on MDA-MB-468 cells; assay: flow cytometry on MDA-MB-468 cells, PE anti-human IgG Fc secondary, antibody from 100 nM in 3-fold dilutions; axis 'Concentration' has no unit, nM from p-1056
# [7] = target: T3, B7-H3 on MDA-MB-468 cells; assay: flow cytometry on MDA-MB-468 cells; blank V2-R 0.9%
# [8] = target: T4, VISTA (NCBI Reference Sequence: …); assay: flow cytometry on VISTA-CHO cells; blank P3 0.1%; the filing says V1-V5 did not bind
# [9] = target: T1, Lag3 (NCBI Reference Sequence: …); assay: flow cytometry on Lag3-CHO cells; blank P3 0.5%; the filing says V1-V5 did not bind
# [10] = target: T6, Tim3 (NCBI Reference Sequence: …); assay: flow cytometry on Tim3-CHO cells; blank P3 0.2%; the filing says V1-V5 did not bind
# [11] = target: T1, Lag3 (NCBI Reference Sequence: …); assay: flow cytometry on Lag3-CHO cells
# [12] = target: T4, VISTA (NCBI Reference Sequence: …); assay: flow cytometry on VISTA-CHO cells
# [13] = target: T6, Tim3 (NCBI Reference Sequence: …); assay: flow cytometry on Tim3-CHO cells
# T5 sequence (fusion chain, as listed by the source limits assumed): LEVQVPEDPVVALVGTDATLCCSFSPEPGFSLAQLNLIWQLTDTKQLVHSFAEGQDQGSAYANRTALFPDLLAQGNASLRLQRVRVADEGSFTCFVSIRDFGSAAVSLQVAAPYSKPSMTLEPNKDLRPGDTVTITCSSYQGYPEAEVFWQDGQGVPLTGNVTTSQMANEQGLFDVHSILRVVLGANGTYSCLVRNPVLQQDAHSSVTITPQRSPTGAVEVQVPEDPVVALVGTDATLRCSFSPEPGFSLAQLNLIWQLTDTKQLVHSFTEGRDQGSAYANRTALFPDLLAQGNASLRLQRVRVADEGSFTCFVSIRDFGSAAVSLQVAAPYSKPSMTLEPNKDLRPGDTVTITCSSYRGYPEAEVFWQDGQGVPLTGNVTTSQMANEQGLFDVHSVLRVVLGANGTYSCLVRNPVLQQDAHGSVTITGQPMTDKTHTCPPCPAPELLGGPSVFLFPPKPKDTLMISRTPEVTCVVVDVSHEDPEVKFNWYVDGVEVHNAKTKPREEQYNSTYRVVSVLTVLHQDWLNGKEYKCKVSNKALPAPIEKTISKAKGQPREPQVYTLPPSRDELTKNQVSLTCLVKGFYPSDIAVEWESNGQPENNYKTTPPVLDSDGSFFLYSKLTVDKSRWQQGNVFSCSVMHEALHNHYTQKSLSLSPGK
Binder,binding result [1],EC50 [2] [nM],binding result [3],binding result [4],Kd [5] [nM],koff [5] [s⁻¹],kon [5] [M⁻¹ s⁻¹],EC50 [6] [nM],% of cells in gate V1-R at 0.411 nM [7] [%],% of cells in gate V1-R at 1.23 nM [7] [%],% of cells in gate V1-R at 3.7 nM [7] [%],% of cells in gate V1-R at 11.11 nM [7] [%],% of cells in gate V1-R at 33.33 nM [7] [%],% of cells in gate V1-R at 100 nM [7] [%],% of cells in gate P3 at 100 nM [8] [%],% of cells in gate P3 at 100 nM [9] [%],% of cells in gate P3 at 100 nM [10] [%],binding result [11],binding result [12],binding result [13]
B1,no binding (tested: 100 nM),3.69,no binding (tested: 100 nM),no binding (tested: 100 nM),0.372,0.000279,750000,1.54,26.5,93.1,98.7,99.5,99.7,99.7,,,,,,
B2,,,,,383,0.0491,128000,69.3,,,,,,,,,,,,
B3,,8.24,,,,,,,31.6,73.5,92.6,99.3,99.6,99.7,0.2,0.4,0.1,no binding (tested: 100 nM),no binding (tested: 100 nM),no binding (tested: 100 nM)
B4,,2.66,,,,,,,1.2,1.3,60.1,97.8,99.7,99.4,1.8,5.6,1.8,no binding (tested: 100 nM),no binding (tested: 100 nM),no binding (tested: 100 nM)
B5,,3.95,,,,,,,1.4,8.6,92.7,99.5,99.6,99.7,0.9,3.2,1.7,no binding (tested: 100 nM),no binding (tested: 100 nM),no binding (tested: 100 nM)
